This is an account of results in publication PMC4148482.

The target of assay [1] is His-tagged Hsp20 wild type (UniProt O14558). Briefly: peptide array overlay (IB: His), spot densitometry. The conditions noted are these: typical of n = 3; parent: est. 100; read off a plot.
The target in assay [2] is Aβ1–42 labelled at the N-terminus with HiLyte Fluor 555 (Aβ555) (human) (UniProt P05067).

Consider “Aβ1–42 25mer peptide 1 (D1–G25; array spot) A2”, for which, in assay [1], the percent of parent (% Control (WT)) is 77.

Regarding “Hsp20 N-terminal 25-mer peptide, S16D variant (in solution)”, the fold decrease in efficiency in disrupting the formation of Aβ555 fibrils and globular structures (self-quenching), against full-length S16D in assay [2] stood at 2 fold.

For “Aβ1–42 25mer peptide 1 (D1–G25; array spot) A21”, the percent of parent (% Control (WT)) in assay [1] was 110.
